Assay results: US20200055896A1, “SUBSTRATES RECOGNIZED BY FIBROBLAST ACTIVATION PROTEIN (FAP) AND METHODS OF USING THE SAME” (GENENTECH, INC., priority 2017, published 2020)
No end group written: not given here.

Tests used:
[1] = molecular target: T1, recombinant mouse FAP (Mus musculus, UniProt P97321); test: FRET-quench assay: probe cleavage by recombinant mouse FAP; format: biochemical; conditions: 1 nM recombinant mouse FAP; 3 μM peptide
T1 construct: (residues L26-D760 and L26-D761, respectively); octa-His (N); made in house; host or cells: transiently transfected CHO cells (conditioned media)
T1 sequence (P97321 26-761): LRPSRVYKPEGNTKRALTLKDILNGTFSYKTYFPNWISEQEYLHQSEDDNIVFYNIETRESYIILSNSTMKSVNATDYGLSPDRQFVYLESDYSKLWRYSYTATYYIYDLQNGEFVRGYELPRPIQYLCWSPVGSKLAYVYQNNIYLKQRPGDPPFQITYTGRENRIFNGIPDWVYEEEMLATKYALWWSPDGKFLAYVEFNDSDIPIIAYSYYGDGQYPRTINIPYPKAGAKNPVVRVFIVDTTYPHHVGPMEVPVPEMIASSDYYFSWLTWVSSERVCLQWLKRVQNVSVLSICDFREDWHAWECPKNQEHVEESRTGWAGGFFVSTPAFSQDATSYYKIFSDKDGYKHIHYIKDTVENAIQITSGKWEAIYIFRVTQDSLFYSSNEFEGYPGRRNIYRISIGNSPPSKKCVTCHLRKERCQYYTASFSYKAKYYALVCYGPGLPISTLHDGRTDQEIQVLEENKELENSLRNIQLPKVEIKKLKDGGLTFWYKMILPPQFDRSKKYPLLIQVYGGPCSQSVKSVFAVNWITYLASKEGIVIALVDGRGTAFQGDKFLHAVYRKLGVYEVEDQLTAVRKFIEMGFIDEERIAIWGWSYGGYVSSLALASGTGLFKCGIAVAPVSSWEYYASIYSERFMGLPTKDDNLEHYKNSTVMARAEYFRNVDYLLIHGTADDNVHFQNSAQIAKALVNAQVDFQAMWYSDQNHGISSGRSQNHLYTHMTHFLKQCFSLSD
Text: Human prolyl oligopeptidase (PREP, 4308-SE), DPPIV (1180-SE), DPP9 (5419-SE), and DPPII/DPP7 (3438-SE) proteins were purchased from R&D Systems. Human DPP8 (BML-SE527) protein was purchased from Enzo Life Sciences. N-terminal octa-His-tagged human and mouse FAP proteins containing the extracellular domain (residues L26-D760 and L26-D761, respectively) were purified from the conditioned media of transiently-transfected CHO cells, by immobilized metal affinity chromatography (IMAC), followed by size exclusion chromatography (SEC).
Peptides of the region flanking the C-terminal human FGF21 cleavage site (VGPSQG) or a variant with D-alanine at P2 (VaPSQG) were synthesized (Anaspec, Inc.), containing an amine-terminal donor (HyLite Fluor 488 or Cy5.5 for aP NIRF) and a dark quencher-acceptor (QXL 520 or QSY21 for aP NIRF) conjugated to a supplementary C-terminal lysine. ANPFAP (Bioconjugate Chem 23:1704-11) and aP NIRF were synthesized by CPC Scientific (Sunnyvale, Calif.). Assays were conducted at 37° C. in 50 mM HEPES (pH 7.2), 150 mM NaCl, 1 mM EDTA, 0.1 mg/ml BSA. The excitation/emission wavelengths of cleaved peptide are 490/520 nm or 675/695 nm for ANPFAP and aP NIRF. Fluorescence was monitored on a Tecan M1000 Pro plate reader in kinetic mode. […]

[2] = molecular target: T2, serum FAP (Homo sapiens, UniProt Q12884); test: aP probe fluorescence assay of FAP activity in human serum versus FAP ELISA; format: biochemical
T2 construct: the extracellular domain encoding the active enzyme can be shed from the cell surface; tissue Discovery Life Sciences, Inc. (part of the samples); host or cells: human serum (healthy donors, cirrhosis patients)
T2 sequence (Q12884 24-760 limits assumed): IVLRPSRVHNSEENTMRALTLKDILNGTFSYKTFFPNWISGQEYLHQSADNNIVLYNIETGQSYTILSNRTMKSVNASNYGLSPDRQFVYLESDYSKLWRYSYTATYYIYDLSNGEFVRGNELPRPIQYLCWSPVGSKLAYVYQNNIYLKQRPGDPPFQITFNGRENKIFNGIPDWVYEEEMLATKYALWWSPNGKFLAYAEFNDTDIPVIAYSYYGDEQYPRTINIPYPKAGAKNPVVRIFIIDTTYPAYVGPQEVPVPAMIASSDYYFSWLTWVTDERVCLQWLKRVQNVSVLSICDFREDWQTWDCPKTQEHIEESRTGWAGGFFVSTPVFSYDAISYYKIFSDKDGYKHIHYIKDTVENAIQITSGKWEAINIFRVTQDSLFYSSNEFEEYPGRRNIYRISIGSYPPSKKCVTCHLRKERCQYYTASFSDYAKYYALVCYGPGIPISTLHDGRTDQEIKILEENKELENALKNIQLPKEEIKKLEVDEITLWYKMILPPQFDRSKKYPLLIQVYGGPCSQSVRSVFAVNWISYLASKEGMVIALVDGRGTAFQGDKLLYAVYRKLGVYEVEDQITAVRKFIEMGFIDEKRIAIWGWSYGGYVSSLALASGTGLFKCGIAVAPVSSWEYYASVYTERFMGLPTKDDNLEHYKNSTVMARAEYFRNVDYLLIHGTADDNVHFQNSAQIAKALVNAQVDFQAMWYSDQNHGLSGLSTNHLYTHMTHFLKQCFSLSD
Method: Mouse plasma samples were prepared in K3-EDTA MiniCollect tubes (Greiner Bio-One, 450475) and frozen immediately at −80° C. prior to analysis. Human serum samples were obtained from healthy donors or purchased from Discovery Life Sciences, Inc. (Los Osos, Calif.).
Serum FAP concentration was measured using the human FAP DuoSet ELISA kit (R&D Systems, DY3715), according to the manufacturer's protocol.
Peptides of the region flanking the C-terminal human FGF21 cleavage site (VGPSQG) or a variant with D-alanine at P2 (VaPSQG) were synthesized (Anaspec, Inc.), containing an amine-terminal donor (HyLite Fluor 488 or Cy5.5 for aP NIRF) and a dark quencher-acceptor (QXL 520 or QSY21 for aP NIRF) conjugated to a supplementary C-terminal lysine. ANPFAP (Bioconjugate Chem 23:1704-11) and aP NIRF were synthesized by CPC Scientific (Sunnyvale, Calif.). Assays were conducted at 37° C. in 50 mM HEPES (pH 7.2), 150 mM NaCl, 1 mM EDTA, 0.1 mg/ml BSA. The excitation/emission wavelengths of cleaved peptide are 490/520 nm or 675/695 nm for ANPFAP and aP NIRF. Fluorescence was monitored on a Tecan M1000 Pro plate reader in kinetic mode. Except where indicated otherwise, measurements of serum or plasma FAP activity were performed with the peptide substrate concentration at 6 μM and a 10-fold dilution of serum or plasma in assay buffer.

cleavage by recombinant mouse FAP [1]	Substance	lowest FAP level detected with the activity assay [2]
cleaved	GP probe: human FGF21 cleavage-site peptide VGPSQG with amine-terminal HyLite Fluor 488 donor and QXL 520 quencher on supplementary C-terminal lysine ({HyLite Fluor 488}-VGPSQGK(QXL 520))	–
–	aP probe: FGF21-based peptide VaPSQG (D-alanine at P2) with HyLite Fluor 488 donor and QXL 520 quencher	63 ng/mL
